From paper PMC5460178 (NPJ Biofilms and Microbiomes, 2017)

Target: the molecule itself
Assay: SEC

B1: GroEL-P (His6-GroEL of B. anthracis co-expressed with PrkCc in E. coli, phosphorylated) (natural protein)
chain: MAKDIKFSEEARRSMLRGVDTLANAVKVTLGPKGRNVVLEKKFGSPLITNDGVTIAKEIELEDAFENMGAKLVAEVASKTNDVAGDGTTTATVLAQAMIREGLKNVTAGANPMGLRKGIEKAVVAAVEELKTISKPIEGKSSIAQVAAISAADEEVGQLIAEAMERVGNDGVITLEESKGFTTELDVVEGMQFDRGYASPYMITDSDKMEAVLDNPYILITDKKISNIQEILPVLEQVVQQGKPLLIIAEDVEGEALATLVVNKLRGTFNVVAVKAPGFGDRRKAMLEDIAILTGGEVITEELGRDLKSATVESLGRAGKVVVTKENTTVVEGVGSTEQIEARIGQIRAQLEETTSEFDREKLQERLAKLVGGVAVIKVGAATETELKERKLRIEDALNSTRAAVEEGIVAGGGTSLMNVYTKVASIVAEGDEATGINIVLRALEEPVRQIAINAGLEGSVVVERLKGEKVGVGFNAATGEWVNMLETGIVDPAKVTRSALQNAASVAAMFLTTEAVVADKPEPNAPAMPDMGGMGMGGMGGMM
stoichiometry N: 14
